# Experimental data reported in IntAct's records for PubMed 19798056.
# B1: TOM1-like protein 1 (Homo sapiens), O75674 (parent)
# chain: MAFGKSHRDPYATSVGHLIEKATFAGVQTEDWGQFMHICDIINTTQDGPKDAVKALKKRISKNYNHKEIQLTLSLIDMCVQNCGPSFQSLIVKKEFVKENLVKLLNPRYNLPLDIQNRILNFIKTWSQGFPGGVDVSEVKEVYLDLVKKGVQFPPSEAEAETARQETAQISSNPPTSVPTAPALSSVIAPKNSTVTLVPEQIGKLHSELDMVKMNVRVMSAILMENTPGSENHEDIELLQKLYKTGREMQERIMDLLVVVENEDVTVELIQVNEDLNNAILGYERFTRNQQRILEQNKNQKEATNTTSEPSAPSQDLLDLSPSPRMPRATLGELNTMNNQLSGLNFSLPSSDVTNNLKPSLHPQMNLLALENTEIPPFAQRTSQNLTSSHAYDNFLEHSNSVFLQPVSLQTIAAAPSNQSLPPLPSNHPAMTKSDLQPPNYYEVMEFDPLAPAVTTEAIYEEIDAHQHKGAQNDGD
# Variants of: B1
# Settings: with grb2_human GRB2, P62993
# grb2_human GRB2, P62993, sequence (P62993 whole entry, looked up): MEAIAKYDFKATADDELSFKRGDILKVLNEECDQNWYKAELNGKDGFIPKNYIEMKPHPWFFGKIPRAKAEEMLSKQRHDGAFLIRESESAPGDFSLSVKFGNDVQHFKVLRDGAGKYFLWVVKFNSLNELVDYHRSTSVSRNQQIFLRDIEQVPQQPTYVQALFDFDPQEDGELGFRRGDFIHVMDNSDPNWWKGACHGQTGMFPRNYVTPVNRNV
row,Variant,effect of a mutation on the interaction
1,Y460F,disrupting interaction

# Variants of: B1
# Settings: with grb2_human GRB2, P62993
# Remark: another data set of the same source
row,Variant,effect of a mutation on the interaction
1,Y392F,disrupting interaction
